Publication PMC3884668

Molecular target: T1, DIS3L2 (rDIS3L2, wild type) (Homo sapiens, UniProt Q8IYB7 1-885)
T1 sequence: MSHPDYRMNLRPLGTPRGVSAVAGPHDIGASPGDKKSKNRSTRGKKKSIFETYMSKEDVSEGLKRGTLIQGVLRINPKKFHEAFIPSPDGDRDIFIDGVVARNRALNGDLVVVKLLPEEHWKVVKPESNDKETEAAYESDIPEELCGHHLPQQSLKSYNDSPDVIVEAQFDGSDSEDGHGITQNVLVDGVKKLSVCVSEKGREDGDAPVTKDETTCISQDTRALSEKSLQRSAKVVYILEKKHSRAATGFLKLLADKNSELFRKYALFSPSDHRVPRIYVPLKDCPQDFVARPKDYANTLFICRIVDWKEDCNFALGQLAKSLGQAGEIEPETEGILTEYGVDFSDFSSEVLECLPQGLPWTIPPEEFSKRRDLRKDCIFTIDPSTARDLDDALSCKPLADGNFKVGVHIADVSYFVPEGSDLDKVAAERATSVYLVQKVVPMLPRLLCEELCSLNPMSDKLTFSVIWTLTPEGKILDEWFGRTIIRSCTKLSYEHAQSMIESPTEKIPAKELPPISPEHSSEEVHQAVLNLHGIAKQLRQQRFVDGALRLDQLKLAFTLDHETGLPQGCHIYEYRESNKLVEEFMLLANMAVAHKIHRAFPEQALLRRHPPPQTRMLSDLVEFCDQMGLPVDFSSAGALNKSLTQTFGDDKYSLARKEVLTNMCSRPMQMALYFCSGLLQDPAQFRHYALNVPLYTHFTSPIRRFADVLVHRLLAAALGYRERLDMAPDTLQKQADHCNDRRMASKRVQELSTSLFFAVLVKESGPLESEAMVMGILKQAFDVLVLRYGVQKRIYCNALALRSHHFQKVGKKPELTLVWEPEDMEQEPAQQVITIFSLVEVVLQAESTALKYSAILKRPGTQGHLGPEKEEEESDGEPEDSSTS
Assay: EMSA

UUUUUUUUUUUUUUUUUUUUUUUUUUUUUU (ssRNA) [U30 RNA]
binding result: binds
